This is an account of results in US20230133141A1 (HONG KONG POLYTECHNIC UNIVERSITY, published 2023).

The target in experiment [1] is T1, full-length ITGA2 (UniProt P17301 30-1181, limits assumed).
T1 sequence (looked up): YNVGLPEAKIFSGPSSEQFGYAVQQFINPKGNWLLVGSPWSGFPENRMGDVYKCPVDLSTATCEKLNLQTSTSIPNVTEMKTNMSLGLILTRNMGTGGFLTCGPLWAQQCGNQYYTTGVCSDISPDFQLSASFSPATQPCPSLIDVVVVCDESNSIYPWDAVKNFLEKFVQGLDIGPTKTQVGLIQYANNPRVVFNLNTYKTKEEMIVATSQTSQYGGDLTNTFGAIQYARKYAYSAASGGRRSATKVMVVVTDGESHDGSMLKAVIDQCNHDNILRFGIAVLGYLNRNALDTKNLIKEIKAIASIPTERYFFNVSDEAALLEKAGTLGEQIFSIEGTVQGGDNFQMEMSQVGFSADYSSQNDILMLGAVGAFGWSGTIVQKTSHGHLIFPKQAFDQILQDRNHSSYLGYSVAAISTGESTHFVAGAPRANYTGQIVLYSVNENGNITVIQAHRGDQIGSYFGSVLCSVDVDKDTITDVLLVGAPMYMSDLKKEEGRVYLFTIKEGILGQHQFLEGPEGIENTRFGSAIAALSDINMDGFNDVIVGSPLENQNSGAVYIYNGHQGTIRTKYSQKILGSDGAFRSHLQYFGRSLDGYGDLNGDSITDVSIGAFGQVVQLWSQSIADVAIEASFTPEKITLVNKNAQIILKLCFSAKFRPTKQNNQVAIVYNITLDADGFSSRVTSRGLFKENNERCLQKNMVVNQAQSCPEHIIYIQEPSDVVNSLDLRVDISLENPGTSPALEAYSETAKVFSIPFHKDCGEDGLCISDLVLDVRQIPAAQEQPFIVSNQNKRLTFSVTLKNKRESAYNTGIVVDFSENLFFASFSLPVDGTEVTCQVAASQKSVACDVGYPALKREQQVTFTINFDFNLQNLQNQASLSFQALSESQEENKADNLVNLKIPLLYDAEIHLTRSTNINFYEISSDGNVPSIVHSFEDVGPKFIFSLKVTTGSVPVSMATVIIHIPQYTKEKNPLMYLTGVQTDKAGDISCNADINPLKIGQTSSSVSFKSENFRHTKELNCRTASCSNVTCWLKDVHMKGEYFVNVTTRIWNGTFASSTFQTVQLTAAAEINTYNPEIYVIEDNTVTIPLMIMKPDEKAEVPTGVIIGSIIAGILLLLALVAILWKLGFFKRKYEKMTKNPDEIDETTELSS
In words: cell-based or functional assay.

In experiment [2] the target is T2, KLGFFKR motif-deficient (dm) ITGA2 (UniProt P17301 30-1181).
T2 construct: whole, on cells; Deletion of the seven residues KLGFFKR; also called A2dm; motif-deficient ITGA2
T2 sequence (looked up): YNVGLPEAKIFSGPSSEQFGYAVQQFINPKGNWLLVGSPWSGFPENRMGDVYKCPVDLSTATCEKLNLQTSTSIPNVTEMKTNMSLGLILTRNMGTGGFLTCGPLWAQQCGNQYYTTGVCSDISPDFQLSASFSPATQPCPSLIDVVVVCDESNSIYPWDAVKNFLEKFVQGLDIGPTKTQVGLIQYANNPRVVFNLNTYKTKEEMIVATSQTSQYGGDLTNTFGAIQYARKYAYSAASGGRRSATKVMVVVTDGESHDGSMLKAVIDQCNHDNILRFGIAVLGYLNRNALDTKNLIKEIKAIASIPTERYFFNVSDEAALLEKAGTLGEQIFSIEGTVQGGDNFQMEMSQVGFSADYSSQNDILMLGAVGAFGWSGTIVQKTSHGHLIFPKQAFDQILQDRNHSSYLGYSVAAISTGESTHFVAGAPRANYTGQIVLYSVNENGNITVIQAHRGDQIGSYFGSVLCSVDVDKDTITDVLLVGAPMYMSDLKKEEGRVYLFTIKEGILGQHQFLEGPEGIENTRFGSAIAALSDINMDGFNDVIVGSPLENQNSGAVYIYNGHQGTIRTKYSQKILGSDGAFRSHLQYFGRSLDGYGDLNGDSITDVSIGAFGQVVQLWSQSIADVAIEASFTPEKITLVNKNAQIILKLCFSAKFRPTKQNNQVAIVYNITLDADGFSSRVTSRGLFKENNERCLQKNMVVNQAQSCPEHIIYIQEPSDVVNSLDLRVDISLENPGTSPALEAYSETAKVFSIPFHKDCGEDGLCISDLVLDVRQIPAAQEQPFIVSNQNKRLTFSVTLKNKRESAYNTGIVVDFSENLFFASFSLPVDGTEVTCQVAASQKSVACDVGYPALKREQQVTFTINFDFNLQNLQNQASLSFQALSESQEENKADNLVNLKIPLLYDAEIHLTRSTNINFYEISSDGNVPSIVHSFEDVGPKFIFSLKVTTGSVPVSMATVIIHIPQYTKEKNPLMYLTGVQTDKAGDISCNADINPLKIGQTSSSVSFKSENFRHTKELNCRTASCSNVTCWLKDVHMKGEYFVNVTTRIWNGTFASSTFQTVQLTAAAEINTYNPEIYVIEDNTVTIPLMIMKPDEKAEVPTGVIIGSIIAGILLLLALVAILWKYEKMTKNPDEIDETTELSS
Put plainly: co-immunoprecipitation with anti-CRT antibody, Western blot. Background: A western blot detects proteins with antibodies after separation by electrophoresis.
Description: (§1) After incubation, agarose beads were centrifuged and washed by PBS. Immunoprecipitated proteins were collected by treating the beads with 0.2 M glycine and subjected to Western Blotting (WB) analysis.
(§2) Total protein was extracted with RIPA buffer supplied with protease inhibitor (Roche), resolved in 10% SDS-PAGE and transferred onto Immobilon-P PVDF membrane (Millipore). Membranes were blocked with 5% non-fat dry milk in Tris-buffered saline with 0.1% Tween (TBST) for 2 hours, then were incubated overnight with corresponding antibodies at 4° C., followed by incubation with horseradish peroxidase-conjugated goat anti-mouse IgG (Santa Cruz Biotechnology) or goat anti-rabbit IgG (Santa Cruz Biotechnology) as appropriate, for 2 hours at room temperature in TBST. Antibody binding was detected with Pierce ECL Western Blotting Substrate (Thermo Scientific) and images were visualized with Azure C600 imaging system (Azure Biosystems).

Experiment [3] has as its target T1, full-length ITGA2. In words: co-immunoprecipitation with anti-CRT antibody from cell lysate, Western blot.
Description: as §1, §2

Non-standard residues stand in square brackets, D forms with d.

B1: DRI-TAT-SP peptide (D-retro-inverso form of TAT-SP) (peptide)
peptide: Ac-[dR][dE][dP][dV][dC][dL][dC][dR]G[dI][dV][dW][dR][dQ][dV][dA][dP][dP][dF]G[dL][dE][dS][dR][dR][dR][dQ][dR][dR][dK][dK][dR]-NH2
modifications: cysteine pairing not given here
Regarding B1, the “EC50 of reversing chemoresistance in BCSCs in the presence of DOX (MTS assay)” value in the experiment with full-length ITGA2 [1] came out at 2300 nM.

B2: calreticulin (CRT) (other, UniProt P27797 18-417, looked up)
chain: EPAVYFKEQFLDGDGWTSRWIESKHKSDFGKFVLSSGKFYGDEEKDKGLQTSQDARFYALSASFEPFSNKGQTLVVQFTVKHEQNIDCGGGYVKLFPNSLDQTDMHGDSEYNIMFGPDICGPGTKKVHVIFNYKGKNVLINKDIRCKDDEFTHLYTLIVRPDNTYEVKIDNSQVESGSLEDDWDFLPPKKIKDPDASKPEDWDERAKIDDPTDSKPEDWDKPEHIPDPDAKKPEDWDEEMDGEWEPPVIQNPEYKGEWKPRQIDNPDYKGTWIHPEIDNPEYSPDPSIYAYDNFGVLGLDLWQVKSGTIFDNFLITNDEAYAEEFGNETWGVTKAAEKQMKDKQDEEQRLKEEEEDKKRKEEEEAEDKEDDEDKDEDEEDEEDKEEDEEEDVPGQAKDEL
notes: Endogenous protein in cell lysate; pulled down with anti-CRT antibody
Regarding B2, the binding result is listed as “no binding” in experiment [2] and “binds” with full-length ITGA2 [3].
